Laboratory results from patent US20090075898A1, “Complement C3A Derived Peptides and Uses Thereof” (Yeda Research and Development Co. Ltd. at the Weizmann …, priority 2005, published 2009).

Tests used:
human FcεRI β chain = human FcεRI β chain (Homo sapiens, UniProt Q01362); experiment: Surface plasmon resonance, immobilized extracellular loop peptides of human FcεRI β chain; conditions: SPR
[1] = test system: rat peritoneal mast cells (RPMC); experiment: Secretory response (β-hexosaminidase release) of rat peritoneal mast cells; type: cell-based
Description: Rat peritoneal mast cells (RPMC) were isolated as previously described (Kim et al. J. Immunol. 162:4960-4965, […]). Mast cell preparations were ca. 95% pure, as evaluated by flow cytometric monitoring of FcεRI surface expression. Compound 48/80, a specific activator of serosal type mast cells elicited about 50% release of the total β-hexosaminidase content of the isolated rat peritoneal mast cells.
(§1) Secretory response of mast cells.
While mucosal type mast cells are non-responsive to peptidergic stimuli, the serosal type ones have been known for a long time to be stimulated by cationic secretagogues. The anaphylatoxic peptides C3a and C5a initiate the cells' secretory response by binding to their respective receptors expressed by serosal type mast cells. To investigate the effect of the peptides on this mast cell-type, RPMC were used. As expected, these cells did respond to both C5a and C3a (Table 2). However, degranulation was inhibited when peptides C3a7 or C3a9 were added to the IgE-sensitized RPMC and stimulated, 5 min later with a suboptimal antigen dose (Table 2).

FcεRI β-chain = target: T1, FcεRI β-chain (Mus musculus, UniProt P20490); experiment: Covalent cross linking of C3a to BMMC, immunoprecipitation and Western blot; type: binding; conditions: C3a 50 μg/ml, BS3 cross linker
T1 construct: endogenous in cells; host or cells: BMMC (bone marrow derived mast cells)
T1 sequence (P20490 1-235): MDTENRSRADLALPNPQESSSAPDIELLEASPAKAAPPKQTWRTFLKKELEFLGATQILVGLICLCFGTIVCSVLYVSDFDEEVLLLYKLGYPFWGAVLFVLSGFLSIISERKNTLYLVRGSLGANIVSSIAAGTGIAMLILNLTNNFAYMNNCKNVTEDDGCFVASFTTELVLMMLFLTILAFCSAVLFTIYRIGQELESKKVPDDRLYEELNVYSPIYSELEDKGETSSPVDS
T1 sequence (P20489 24-250 partner): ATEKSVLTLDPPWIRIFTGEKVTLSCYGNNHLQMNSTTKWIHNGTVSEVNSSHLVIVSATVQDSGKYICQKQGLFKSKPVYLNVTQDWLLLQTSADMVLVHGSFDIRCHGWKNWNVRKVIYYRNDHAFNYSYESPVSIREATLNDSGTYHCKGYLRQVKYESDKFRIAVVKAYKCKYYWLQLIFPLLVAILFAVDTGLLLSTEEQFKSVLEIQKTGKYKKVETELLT
T1 sequence (P20491 19-86 partner): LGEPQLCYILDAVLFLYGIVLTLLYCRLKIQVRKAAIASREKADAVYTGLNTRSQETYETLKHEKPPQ
Description: Covalent cross linking of C3a to BMMC. BMMC were washed and incubated with C3a (50 μg/ml per 15−20×10^6 cells/sample, in PBS) for 10 min at room temperature. After another incubation of 20 min at room temperature with 5 mM of the cross linking reagent bis-(sulphosuccinimidyl)-suberate (BS3, PIERCE, Ill., USA) cells were washed and lysed. Polyclonal rabbit antibodies specific to C3a (Behringwerke AG, Germany) were used for immunoprecipitation. Western blotting was carried out by an FcεRI β chain specific antibody kindly provided by Jean Pierre Kinet (Harvard University, Boston, USA). As secondary antibody, HRPO-conjugated goat anti-mouse IgG (DAKO, Frank Diagnosztika Kft, Hungary) was used. Detection was performed by ECL.
Covalent cross-linking of C3a to BMMC. Since no C3a-receptors could be detected on mucosal type mast cells, the possibility that the peptides exert their inhibitory effect via interaction with a different cell membrane component, probably the type 1 Fcε-receptor, was examined. […] Since the ITAM-bearing β-chain had earlier been reported to act as an amplifier of the FcεRI response, the interaction of C3a with this membrane protein on BMMC was determined. Cells were incubated with C3a followed by adding the covalent cross linking agent, BS^3-reagent. […] Protein samples were separated by SDS-PAGE and analyzed by Western-blotting, using FcεRI β-chain specific antibodies.

rat FcεRI β chain = rat FcεRI β chain (Rattus norvegicus, UniProt P13386); experiment: Surface plasmon resonance, immobilized extracellular loop peptides of rat FcεRI β chain; conditions: SPR
RBL-2H3 cells = conditions: Erdei et al. 1995, 1999; cited from earlier work
[2] = test system: bone marrow derived mast cells (BMMC); experiment: Secretory response (β-hexosaminidase release) of bone marrow derived mast cells; type: cell-based, mouse
Description: Cells. Bone marrow derived mast cells (BMMC) were prepared from Balb/c mice as described by Nagao et al. (Science 212: 333-335, 1981). After 3 weeks, an approximately 95% pure mast cell population was obtained, showing high expression of FcεRI and stem cell factor receptor (c-kit), as measured by flow cytometry.
as §1
Similar experiments were carried out using bone-marrow derived mast cells (BMMC). […] The control peptide of the sequence DVSNYITR had no effect on either system.

C3a: human complement component C3a, a 77-mer peptide (SEQ ID NO:1), isolated
Interaction with the second extracellular loop of human FcεRI β chain (human FcεRI β chain): No interaction could be detected
Kd (human FcεRI β chain; read-out: Kd, first extracellular loop of human FcεRI β chain, koff/kon): 250 nM
Stimulation of secretory response of RPMC by the peptide itself ([1]; non-sensitized cells, no antigen): did respond
Inhibitory effect (IC50) on the IgE-mediated degranulation of rat peritoneal mast cells (RPMC) ([1]; suboptimal antigen-dose): Activation*
Cross-linked complex with FcεRI β-chain on BMMC (FcεRI β-chain): covalent complex
Interaction with the second extracellular loop of rat FcεRI β chain (rat FcεRI β chain): No interaction could be detected
Kd (rat FcεRI β chain; read-out: Kd, first extracellular loop of rat FcεRI β chain, koff/kon): 520 nM
Inhibition of IgE-mediated degranulation of RBL-2H3 cells (literature) (RBL-2H3 cells): inhibit
Inhibition of IgE-mediated secretory response of BMMC [2]: found to inhibit
